Reference: patent publication US20030059769A1

Molecular target: LS-Rg, chimeric protein of the extracellular domain of human L-selectin joined to the Fc domain of a human G2 immunoglobulin (human) (UniProt P14151)
Assay: competition of unlabeled antibody against radiolabeled 2'-F RNA ligand LF1807 on purified LS-Rg

Chain of LS-Rg, chimeric protein of the extracellular domain of human L-selectin joined to the Fc domain of a human G2 immunoglobulin (human) (P14151 39-332, stated change not applied): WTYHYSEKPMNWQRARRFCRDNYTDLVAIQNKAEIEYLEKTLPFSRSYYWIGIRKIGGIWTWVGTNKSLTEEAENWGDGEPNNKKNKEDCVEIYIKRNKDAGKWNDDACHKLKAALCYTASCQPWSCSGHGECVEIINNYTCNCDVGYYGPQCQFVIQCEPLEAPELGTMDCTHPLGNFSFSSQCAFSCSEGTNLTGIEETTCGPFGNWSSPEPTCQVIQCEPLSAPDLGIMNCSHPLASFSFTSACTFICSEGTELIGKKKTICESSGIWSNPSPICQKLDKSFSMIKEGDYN

concentration for complete inhibition: 300 nM
Substance: DREG-56, L-selectin specific blocking monoclonal antibody
